In the supplement of paper PMC9170038:

Tested on: MS2 coat protein
Assay: apparent KD of MS2 coat protein; designed switch direction (-1 OFF switch, 1 ON switch): -1; higher = weaker reporter binding
How it was run: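 An oligonucleotide input, 200 uM small-molecule ligand, or no input was present during titration of SNAP-549-labelled MS2 coat protein, which was doubled from 0.7 or 1.5 nM to 3 µM. Designed RNA switches had been transcribed on Illumina chips by stalled E. coli RNA polymerase. Apparent KD per design is the median over clusters of curves fitted to normalised cluster fluorescence.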

[1] = input ligand: microRNA oligo, concentration not stated
[2] = Eterna round: R95, input ligand: microRNA oligo, concentration not stated

Sequence | apparent KD of MS2 coat protein (input ligand: FMN 200 uM) | apparent KD of MS2 coat protein (input ligand: none) | other results
UCGGGCUCAGAGGAUAUGGGCGAAAAUAUAAAACCAGAAGGCUGAACUUGAGGAUCACCCAAGUACGGGCAAAA [Inxeridi] (Eterna round: R97, puzzle: Exclusion 6) | 143 nM | 67.9 nM | –
UCGUUCCGUGUAGGAUAUUGGCCUUCUCUGGGCCGAGAAGGACAUGAGGAUCACCCAUGUAUGUUAUUAUCGCGCGUGGCGCAU [Design 85] (Eterna round: R96, puzzle: Exclusion NG 1) | – | – | apparent KD of MS2 coat protein [1]: 24.7 nM
UCUAGACAUGAGGAUCACCCAUGUGAGGAUAUGAUGCGAUCGUCGAAAGACGAUAGCAUCAGAAGGCACAUAUG [Fiskers Ex 1 - 4] (puzzle: Exclusion 1) | – | – | apparent KD of MS2 coat protein [2]: 117 nM
UCUAGCUUUUUGCGUCAAGCAUUGAAGUCUGUGAUCGUUACAUGAGGAUCACCCAUGUAUGUUUUAUGUCGUCUUGU [JR_SV3TOV2_Sub099] (puzzle: Sensor v3, turn-off variant 2) | – | – | apparent KD of MS2 coat protein (Eterna round: R95, input ligand: FMN 200 uM): 37.2 nM; apparent KD of MS2 coat protein [2]: 33.1 nM; apparent KD of MS2 coat protein (Eterna round: R95, input ligand: none): 43.9 nM
UCUAUUUUGCGAGGAUAUCGACCAUUCCUCUUUACAUGAGGAUCACCCAUGUUCUUUUUCUACAACGAGAAGGCGCUCAUAGUU [JR_ExcNG2_Sub062] (Eterna round: R96, puzzle: Exclusion NG 2) | 73.5 nM | 61.6 nM | apparent KD of MS2 coat protein [1]: 67.7 nM
UCUCAGCCUAAGGAUAUGAGCCGAACCAAAAGUUCAGAAGGUAGGACAUGAGGAUCACCCAUGUGAGCCUACAC [Eternabot (Original) Solution 39] (Eterna round: R97, puzzle: Exclusion 6) | 34.3 nM | 21.3 nM | –
UCUCGAAGGCAAGGAUAUCCUACAUUGUUCUGGCCCGGGCAUGCUACAUGAGGAUCACCCAUGUGGGAGAAGGUGCGCCACUGC [Design 28] (Eterna round: R96, puzzle: Exclusion NG 2) | 69.6 nM | 72 nM | apparent KD of MS2 coat protein [1]: 47.1 nM
UCUCGACAUGAGGAUCACCCAUGUCAGGAUAUUGUAUUAGAGGUUUUUUACCUUAUAACAAGAAGGGAUGUGUG [LRO-Excl1-23] (puzzle: Exclusion 1) | – | – | apparent KD of MS2 coat protein [2]: 23.6 nM
UCUCGCUGGCGAGGAUAUCCUGUGCGGUUCCGGCUCGUGUCUGUUACAUGAGGAUCACCCAUGUGGGAGAAGGUGCCUGUGGCU [Design 94] (Eterna round: R96, puzzle: Exclusion NG 2) | – | – | apparent KD of MS2 coat protein [1]: 22 nM
UCUCUGCGAGGAUAUACGUUUGCGCGCUUUCGUUUGCGCGUACAUGAGGAUCACCCAUGUAGAAGGCGCGUUUC [Apr-15 SS2-9] (puzzle: Exclusion 2) | – | – | apparent KD of MS2 coat protein [2]: 12.6 nM
UCUCUGUGAGGAUAUUGAACGACGCCGCUAACGGGCUUGCACAAGAAGGCACAUGAGGAUCACCCAUGUCCCGA [EX4 B.28] (Eterna round: R97, puzzle: Exclusion 4) | 29.1 nM | 20.7 nM | –
UCUGCCGCUGUGAGGAUAUGCCCAAAUAAAAGCGGGCAGAAGGCACAUGAGGAUCACCCAUGUCCUGCGGUUUU [salish99_bmx4_r4_143] (Eterna round: R97, puzzle: Brourd's mod of Exclusion 4) | 180 nM | 28.8 nM | –
UCUUUAGGUGUUAGGAUAUACCUGCGCAAAGUUAGGUAGAAGGGACAUGAGGAUCACCCAUGUGCGUCCACAAU [Eternabot (L1) Solution 29] (Eterna round: R97, puzzle: Brourd's mod of Exclusion 4) | 30.4 nM | 27.5 nM | –
UGAGCAUGAGGAUAUACAAGGCGACCGUGAGGUCGAGGUUUACAUGAGGAUCACCCAUGUAGAAGGCAUGUUCU [jl-ex2-4.07] (Eterna round: R97, puzzle: Exclusion 2) | 40.2 nM | 20 nM | –
UGAGCUUGAGGAUAUACAAUGAGCUUGAGAAAUCGAGUUCGACAUGAGGAUCACCCAUGUAGAAGGCGAGUUCG [-37.5, -35.6 kcal, A 28% 1 and 1] (Eterna round: R97, puzzle: Exclusion 2) | 28.1 nM | 17.7 nM | –
